To fix the notation:
T1: hIL1RAP (Homo sapiens, UniProt Q9NPH3)
T1 sequence (Q9NPH3 21-367 limits assumed): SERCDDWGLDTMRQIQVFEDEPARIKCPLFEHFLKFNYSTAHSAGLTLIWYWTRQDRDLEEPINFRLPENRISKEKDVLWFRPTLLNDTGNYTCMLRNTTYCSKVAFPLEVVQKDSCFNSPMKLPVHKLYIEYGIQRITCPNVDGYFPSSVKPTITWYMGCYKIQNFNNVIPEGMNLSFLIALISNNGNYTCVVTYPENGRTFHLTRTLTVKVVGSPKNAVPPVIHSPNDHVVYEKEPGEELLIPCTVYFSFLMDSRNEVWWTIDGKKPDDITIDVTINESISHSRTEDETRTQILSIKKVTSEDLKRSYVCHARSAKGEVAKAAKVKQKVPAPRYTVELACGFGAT

B1: 74804_27I24A: anti-IL1RAP mAb; VH SEQ ID NO:13, VL SEQ ID NO:29, λ light chain (antibody, V domains shown)
VH: EVQLVESGGGLVKPGGSLRLSCAASGFTFITYSMNWVRQAPGKGLEWVSSISSISSYIYYADSVKGRFTISRDNAKNSLYLQMDSLRAEDSAVYYCAREGIVGPTGYFDSWGQGTLVTVSS
VL: QSVLTQPPSVSAAPGQKVTISCSGSSSNIGNHYVSWYQQLPGTAPKLLIYDNNKRPSGIPDRFSGSKSGTSATLGITGLQTGDEADYYCGTWDSRLSAYWVFGGGTKLTVL
modifications: 74804_27I24A VH; 74804_27I24A VL
B2: 74804_25H09A: anti-IL1RAP mAb; VH SEQ ID NO:9, VL SEQ ID NO:25, κ light chain (antibody, V domains shown)
VH: QVQLVQSGAEVKKPGSSVKVSCKASGDTFSNYAITWVRQAPGQGLEWIVGFSPIFGTANYAQKFQGRVTITADKSTSTAYMELSSLISEDTAVYYCAWGSGNFNWFDPWGQGTLVTVSS
VL: AIRMTQSPSSFSASTGDRVTITCRASQGISSYLAWYQQKPGKAPKLLIYAASTLQSGVPSRFSGSGSGTDFTLTISSLQSEDFATYYCQQYYSYPLTFGGGTKVEIK
modifications: 74804_25H09A VH; 74804_25H09A VL
B3: 74804_07K10A: anti-IL1RAP mAb; VH SEQ ID NO:5, VL SEQ ID NO:22, κ light chain (antibody, V domains shown)
VH: QVQLLQSGAEVKKPGSSVKVSCRASGGTFSIYAIDWVRQAPGQGLEWMGGIIPISGTENSAQNFQDRITITADKSTNTAYMELSSLRSEDTAVYYCARNGATSDAFDIWGQGTMVTVSS
VL: EIVLTQSPGTLSLSPGERATLSCRASLSVSSNYLAWFQQRPGQAPRLLIYGVSRRATGIPDRFSGSGSGTDFTLTISRLEPEDFAVYYCQQYGSSPLTFGGGTKVEIK
modifications: 74804_07K10A VH; 74804_07K10A VL, 74804_29D13A VL and 74804_43F04A VL
B4: 74804_29D13A: anti-IL1RAP mAb; VH SEQ ID NO:6, VL SEQ ID NO:22, κ light chain (antibody, V domains shown)
VH: B3 VH with R23K, S55F, E58A, N63K, D66G, I68V, N77S, I108M
VL: B3 VL
modifications: 74804_12A21B VH and 74804_29D13A VH; 74804_07K10A VL, 74804_29D13A VL and 74804_43F04A VL
B5: 74804_51C10A: anti-IL1RAP mAb; VH SEQ ID NO:8, VL SEQ ID NO:24, κ light chain (antibody, V domains shown)
VH: B3 VH with R23K, S30N, S55F, E58A, N63K, D66G, I68V
VL: B3 VL with L27Q
modifications: 74804_51C10A VH; 74804_51C10A VL
B6: 74804_18L05A: anti-IL1RAP mAb; VH SEQ ID NO:4, VL SEQ ID NO:21, κ light chain (antibody, V domains shown)
VH: QVQLVQSGAEVKKPGASVKVSCKTSGYTFTSCCMHWVRQAPGQGLEWMGIINPSVGSTSYAQKFQGIVTMTRDTSTSTVYMELSSLRSEDTAVYYCAVDSSGSRYYYGMDVWGQGTTVTVSS
VL: EIVMTQSPATLSVSPGERATLSCRASQSVRSNLAWYQQRPGQAPRLLIYGTSTRATGIPARFSGSGSGTEFTLTISSLQSEDFAVYYCQQYNYWPYTFGQGTKLEIK
modifications: 74804_18L05A VH; 74804_18L05A VL
B7: 74804_05B24A: anti-IL1RAP mAb; VH SEQ ID NO:10, VL SEQ ID NO:26, κ light chain (antibody, V domains shown)
VH: EVQLVDSGGGLVKPGGSLRLSCAATGFTFSNVWMSWVRQGSGKGLEWVGRIKSKTDGGTIDYAAPVKGRFTISRDDPKNTLYLQMNSLKTEDTAVYYCTTGELLGFDYWGQGTLVTVSS
VL: DIVMTQSPLSLPVTPGEPASISCRSGQSLLHNNGFNCLAWYLQKPGQSPQLLIYLGSNRASGVPDRFSGSGSGTDFTLKISRVEAEDVGVFYCMQTLQTPITFGQGTRLEIK
modifications: 74804_05B24A VH; 74804_05B24A VL

Where a chain is given by its changes, count along the chain named.

One experiment has as its system IL33-induced NFκB activity. Description: HEK-BlueIL33 NFκB Reporter Assay. The format is cell-based, human. The settings on record: nM range, read-out: IC50, inhibition of IL33-induced NFκB activity. An excerpt: HEK-Blue IL33 (Invivogen, Cat #hkb-hil33) cell line was used to monitor NFκB activity upon stimulation with IL33 cytokine. The secreted embryonic alkaline phosphatase reporter gene (SEAP) is inducible expressed under the control of IFN-β minimal promoter fused to NFκB/AP-1. HEK-BlueIL33 cells were also generated upon stable transfection with human IL1RL1 (ST2) gene. Specificity to IL33 cytokine was achieved by blockage of TNF-α and IL1 response. Cells are maintained in the presence of hygromycin (200 μg/ml), zeocin (100 μg/ml) and blasticidin (10 μg/ml).
(§1) For the functional assay, cells were plated at a density of 5×10^4 cells/well in 96-well plates. Cells were treated with each antibody at the highest concentration of 200 μg/ml followed by seven serial 1:3 dilutions and incubated for 45 minutes at 37° C./5% CO^2 in humified incubator. Cells were then stimulated with IL33 (12 μM) and incubated overnight at 37° C./5% CO2 in humified incubator. Every treatment was conducted in triplicates. Following, supernatants from each well were mixed with Quanti-Blue substrate (Invivogen, Cat #rep-qb1) according to manufacturer's recommendations and secreted SEAP was measured using spectrophotometer at 650 nm.
(In general: In a reporter assay the amount or activity of a reporter protein is the signal.)
Regarding B1, the IC50 – broadly, the point on the concentration scale where inhibition reaches its midpoint – was found to be 8.31 nM.

Regarding B2, the concentration for half-maximal inhibition (IC50) came to 6.55 nM.

Regarding B3, the IC50 stood at 6.62 nM.

B4: the IC50 was determined as 8.75 nM.

For the molecule B5, the concentration for half-maximal inhibition (IC50) is 13 nM.

For B6, the IC50 worked out at 4.81 nM.

On to B7, for which the IC50 was determined as 2.72 nM.

Another experiment concerns the target T1, hIL1RAP. Nature of the experiment: Kinetics of IL1RAP mAbs by Octet, human IL1RAP. The format is binding. Details: extracellular domain His-tagged, Cat #10121-H08H; His; purchased Sino Biological lot MB08MA1301 (catalogue number not given).
Conditions: not given
As to the method:
(§2) Antibodies were diluted in kinetics buffer (0.1% BSA, 0.02% Tween-20 and 0.05% NaN3 in PBS) and loaded onto 16 channel anti-mouse IgG Fc capture sensors (AMC, Cat #2001073; Sartorius, Göttingen, Germany). Human, huIL1RAP-His (Sino Biological, lot: MB08MA1301), and monkey, cyIL1RAP-His (Lake Pharma, NY, USA; lot:16205819371) proteins were titrated starting from the highest concentration of 100 nM and followed by 50 nM and 25 nM. Purified antibodies were loaded at 5 μg/ml in kinetics buffer. The experimental parameters selected to determine the kinetic constants were Baseline for 60 s, Loading of antibody to sensor for 180 s, Association of analyte to antibody for 120 s, Dissociation for 1200 s and Regeneration in 10 mM Glycine pH 1.7 for 4×30 s.
(§3) Regeneration cycle tracking was selected for 12 cycles. Binding to human and cynomolgus IL1RAP was measured and KD (M) kinetics were calculated. Also, the disassociation rate (Kdis) (1/s) and association rate (Kon) (1/Ms) kinetics were calculated (data not shown).
A general note: In BLI a coated tip is dipped into the sample, and binding shifts an interference pattern.
With B1, the “hIL1RAP kdis(1/s)” value was 0.000747 s⁻¹ and the “hIL1RAP kon(1/Ms)” value stood at 350400 M⁻¹ s⁻¹.

B2: the “hIL1RAP kdis(1/s)” value was 0.000337 s⁻¹ and the “hIL1RAP kon(1/Ms)” value was determined as 154500 M⁻¹ s⁻¹.

Regarding B3, the “hIL1RAP kdis(1/s)” value is 0.000234 s⁻¹ and the “hIL1RAP kon(1/Ms)” value was 392100 M⁻¹ s⁻¹.

Turning to B4, the “hIL1RAP kdis(1/s)” value amounted to 0.000361 s⁻¹ and the “hIL1RAP kon(1/Ms)” value is 336100 M⁻¹ s⁻¹.

B5: the “hIL1RAP kdis(1/s)” value is 0.000301 s⁻¹ and the “hIL1RAP kon(1/Ms)” value turned out to be 343500 M⁻¹ s⁻¹.

Take B6: the “hIL1RAP kdis(1/s)” value came to 0.00037 s⁻¹ and the “hIL1RAP kon(1/Ms)” value was found to be 227800 M⁻¹ s⁻¹.

With B7, the “hIL1RAP kdis(1/s)” value was 0.000491 s⁻¹ and the “hIL1RAP kon(1/Ms)” value was 294400 M⁻¹ s⁻¹.

The subject of a further experiment is IL1-induced NFκB activity. Description: HEK-BlueIL1β NFκB Reporter Assay. The class given is cell-based. The settings on record: nM range, read-out: IC50, inhibition of IL1-induced NFκB activity. The procedure: The HEK-Blue IL1β (Invivogen, Cat #hkb-il1b) cell line was used to monitor NFκB activity upon stimulation with IL1β cytokine. In this cell line the secreted embryonic alkaline phosphatase reporter gene (SEAP) is inducibly expressed under the control of IFN-β minimal promoter fused to NFκB/AP-1. Specificity to IL1β cytokine was achieved by blockage of TNF-α response. The cells were maintained in the presence of hygromycin (200 μg/ml) and zeocin (100 μg/ml).
as §1, with “CO2” for “CO^2”, “IL1β” for “IL33”, “(Invivogen, CA USA;” for “(Invivogen,”
Turning to B1, the IC50 was determined as 1.96 nM.

Take B2: the IC50 stood at 1.77 nM.

For the molecule B3, the IC50 was 3.19 nM.

Take B4: the IC50 is 1.85 nM.

For the molecule B5, the IC50 is 2.5 nM.

For the molecule B6, the IC50 worked out at 1.73 nM.

As for B7, the IC50 came out at 0.446 nM.

A further experiment relates to patient-derived AML samples. Nature of the experiment: Cell viability of patient-derived AML samples, CellTiter-Glo. The format is cell-based, human. The settings on record: 15 patient-derived AML samples; 0.1-100 nM, 6 days. As to the method: Primary patient-derived AML cells collected using leukapheresis or peripheral blood draw were selected based on expression levels of IL1RAP, IL1R1 and IL1RL1. On study day 0, cell viability was calculated, and cells were seeded at a density of 20,000 viable cells/well in 96-well plates. Cells were treated on Day 0 with IL1RAP monoclonal antibodies at a concentration of 100 nM followed by 5-fold serial dilutions. Cytarabine treatment (5 μM) was used as a positive control. Plates were kept at 37° C./5% CO2 in humified incubator and media was not changed during the duration of the assay. On Day 6, plates were removed from incubator and equilibrated to room temperature for up to 30 minutes. Then CellTiter-Glo was added to wells (100 μl) and plates were mixed for 2 minutes on plate rocker, followed by 10 minutes incubation at room temperature. Luminescent signal was recorded using Tecan plate reader and IC50s were calculated.
A general note: ATP-based viability assays read luminescence as a measure of living cells.
Take B1: the Inhibition of viability entry was “inhibition of viability of patient-derived AML samples”.

As for B7, the Inhibition of viability entry is “inhibition of viability of patient-derived AML samples”.

A further experiment relates to cyIL1RAP. Description: Kinetics of IL1RAP mAbs by Octet, cynomolgus IL1RAP. The class given is binding.
Conditions: not given
As to the method:
as §2, §3
B1: the “cyIL1RAP kdis(1/s)” value came to 0.001071 s⁻¹ and the “cyIL1RAP kon(1/Ms)” value amounted to 379500 M⁻¹ s⁻¹.

With B2, the “cyIL1RAP kdis(1/s)” value came out at 0.000297 s⁻¹ and the “cyIL1RAP kon(1/Ms)” value stood at 142000 M⁻¹ s⁻¹.

With B3, the “cyIL1RAP kdis(1/s)” value worked out at 0.000283 s⁻¹ and the “cyIL1RAP kon(1/Ms)” value came to 376800 M⁻¹ s⁻¹.

Take B4: the “cyIL1RAP kdis(1/s)” value worked out at 0.00065 s⁻¹ and the “cyIL1RAP kon(1/Ms)” value is 329600 M⁻¹ s⁻¹.

Consider B5, for which the “cyIL1RAP kdis(1/s)” value was 0.000459 s⁻¹ and the “cyIL1RAP kon(1/Ms)” value was 325600 M⁻¹ s⁻¹.

Regarding B6, the “cyIL1RAP kdis(1/s)” value came out at 0.000954 s⁻¹ and the “cyIL1RAP kon(1/Ms)” value was found to be 221100 M⁻¹ s⁻¹.

On to B7, for which the “cyIL1RAP kdis(1/s)” value was determined as 0.000563 s⁻¹ and the “cyIL1RAP kon(1/Ms)” value turned out to be 267900 M⁻¹ s⁻¹.

The record behind these values is US20240392013A1, “IL1RAP ANTIBODIES AND USES THEREOF” (STELEXIS THERAPEUTICS, LLC, priority 2021, published 2024).
